Key:
[1] = target: SYT/L (long isoform of SYT/SS18), monkey (Cos-1) (monkey (endogenous in Cos-1)); assay: co-IP; endogenous proteins; post-nuclear (cytosolic) lysates of U2OS or Cos-1 cells in MLB buffer (25 mM HEPES pH 7.5, 150 mM NaCl, 1% Igepal CA-630, 10 mM MgCl2, 1 mM EDTA, 2% glycerol, 1 mM ATP); 1 µg pSYT or SYT/L-specific antibody overnight, Protein G PLUS-Agarose, 3 washes with RIPA buffer; bands stained with SYPRO Ruby, excised and identified by nano LC/MS/MS; controls: IgG and lysates of panSYT229 RNAi cells; Cos-1 lysates also pre-incubated with 100 µM GTP-γS or 1 mM GDP for 30 min at 30°C
[2] = target: SYT/S (short isoform of SYT/SS18), monkey (Cos-1) (monkey (endogenous in Cos-1)); assay: as above

difference in co-immunoprecipitated level between lysates with GTP-γS and with GDP [1]: < 5% | difference in co-immunoprecipitated level between lysates with GTP-γS and with GDP [2]: < 5%
Substance: actin, monkey (Cos-1) (from UniProt Q76N69 1-375) (natural protein)

— paper PMC2714072
